Test results: patent publication US20240116985A1, “STAPLED PEPTIDES AND METHODS THEREOF” (priority 2020, published 2024)
Starred links: 1 amine or outer side, 2 acyl side, 3 side chain; linkers in the order of their positions; H or OH if unused. Positions of bridges follow the written chain, without caps; N, C: chain ends. Non-standard residues stand in square brackets, D forms with d. Primed or numbered codes have the meaning given here. (CH2CMe2CO2H)TriAzDap = (S)-3-(1-(2-amino-2-carboxyethyl)-1H-1,2,3-triazol-4-yl)-2,2-dimethylpropanoic acid, CC(C)(Cc1cn(C[C@H](N[*:1])C(=O)[*:2])nn1)C(=O)[*:3]; (CMe2CO2H)TriAzDap = (S)-2-amino-3-(4-(2-carboxypropan-2-yl)-1H-1,2,3-triazol-1-yl)propanoic acid, CC(C)(C(=O)[*:3])c1cn(C[C@H](N[*:1])C(=O)[*:2])nn1; PyrS2″ = (S)-3-amino-1-((pent-4-en-1-yloxy)carbonyl)pyrrolidine-3-carboxylic acid (stapling residue), C=CCCCOC(=O)N1CC[C@@](N[*:1])(C(=O)[*:2])C1; (CH2CH2CO2H)TriAzDap = (S)-2-amino-3-(4-(2-carboxyethyl)-1H-1,2,3-triazol-1-yl)propanoic acid, O=C([C@H](Cn1cc(CCC(=O)[*:3])nn1)N[*:1])[*:2]; B5(4) = 2,2-bis(4-pentenyl)glycine = 2-amino-2-(pent-4-en-1-yl)hept-6-enoic acid (stitching residue), C=CCCCC(CCCC=C)(N[*:1])C(=O)[*:2]; B5(5) = 2,2-bis(4-pentenyl)glycine, 2-amino-2-(pent-4-en-1-yl)hept-6-enoic acid (stitching residue), C=CCCCC(CCCC=C)(N[*:1])C(=O)[*:2]; PyrS2 = (S)-3-amino-1-((pent-4-en-1-yloxy)carbonyl)pyrrolidine-3-carboxylic acid, C=CCCCOC(=O)N1CC[C@@](N[*:1])(C(=O)[*:2])C1; (3C)TriAzLys = (S)-2-amino-6-(4-propyl-1H-1,2,3-triazol-1-yl)hexanoic acid, CCCc1cn(CCCC[C@H](N[*:1])C(=O)[*:2])nn1; B5(12) = 2-amino-2-(pent-4-en-1-yl)hept-6-enoic acid (two olefin side chains), C=CCCCC(CCCC=C)(N[*:1])C(=O)[*:2]; PyrS2(5) = (S)-3-amino-1-((alkenyloxy)carbonyl)pyrrolidine-3-carboxylic acid, carbamate stapling residue; 2COOHF = (S)-2-(2-amino-2-carboxyethyl)benzoic acid, O=C([C@H](Cc1ccccc1C(=O)[*:3])N[*:1])[*:2]; B5(3) = 2,2-bis(4-pentenyl)glycine (stitching residue), C=CCCCC(CCCC=C)(N[*:1])C(=O)[*:2]; Phe(3-COOH) = N[C@@H](Cc1cccc(C(=O)O)c1)C(=O)O; 2F3MeF = Cc1cccc(C[C@H](N[*:1])C(=O)[*:2])c1F; Phe(2-CF3) = N[C@@H](Cc1ccccc1C(F)(F)F)C(=O)O; Phe(2-Cl) = N[C@@H](Cc1ccccc1Cl)C(=O)O; 2Nal = N[C@@H](Cc1ccc2ccccc2c1)C(=O)O; Bta = N[C@@H](Cc1csc2ccccc12)C(=O)O; Lys(iPr) = CC(C)NCCCC[C@H](N)C(=O)O; αAllylPro = C=CC[C@@]1(C(=O)O)CCCN1; tBuAla = CC(C)(C)C[C@H](N)C(=O)O; 3Thi = N[C@@H](Cc1ccsc1)C(=O)O; Cha = N[C@@H](CC1CCCCC1)C(=O)O; Cit = NC(=O)NCCC[C@H](N)C(=O)O; S8 = C=CCCCCCC[C@](C)(N)C(=O)O; Thr(ol) = C[C@@H](O)[C@H](N)CO

Experiments:
[1] = molecular target: full-length beta-Catenin (Uniprot ID P35222) (Homo sapiens (Human)) (UniProt P35222); experiment: AlphaScreen competition vs biotin-TCF4(10-53) on full-length beta-catenin
Target sequence in this assay (P35222 whole entry, the tested form may be a part, one chain of several): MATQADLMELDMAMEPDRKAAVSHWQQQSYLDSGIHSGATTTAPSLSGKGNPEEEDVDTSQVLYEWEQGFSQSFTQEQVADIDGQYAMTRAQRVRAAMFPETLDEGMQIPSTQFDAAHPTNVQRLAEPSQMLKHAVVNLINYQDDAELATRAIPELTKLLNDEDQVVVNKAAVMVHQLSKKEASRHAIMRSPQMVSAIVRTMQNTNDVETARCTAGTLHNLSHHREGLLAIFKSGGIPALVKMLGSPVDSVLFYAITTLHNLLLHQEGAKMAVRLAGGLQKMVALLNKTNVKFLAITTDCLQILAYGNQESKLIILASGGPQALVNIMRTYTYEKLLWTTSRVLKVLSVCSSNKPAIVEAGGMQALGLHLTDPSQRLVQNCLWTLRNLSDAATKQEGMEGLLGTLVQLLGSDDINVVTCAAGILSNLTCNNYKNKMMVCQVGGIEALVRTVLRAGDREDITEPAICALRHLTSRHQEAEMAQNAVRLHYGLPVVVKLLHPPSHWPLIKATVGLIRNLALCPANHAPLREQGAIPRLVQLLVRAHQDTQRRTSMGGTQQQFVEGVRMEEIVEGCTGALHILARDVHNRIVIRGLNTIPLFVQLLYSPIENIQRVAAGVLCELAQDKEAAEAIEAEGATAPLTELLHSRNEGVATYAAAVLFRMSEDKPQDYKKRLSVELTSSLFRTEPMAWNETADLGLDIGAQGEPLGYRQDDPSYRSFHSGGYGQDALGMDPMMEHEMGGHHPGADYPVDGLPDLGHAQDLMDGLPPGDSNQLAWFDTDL

[2] = molecular target: full-length beta-Catenin (Uniprot ID P35222) (Homo sapiens (Human)) (UniProt P35222); experiment: fluorescence polarization competition; 10 nM full-length beta-catenin with 10 nM 5FAM-TCF4(10-53) probe as competitor
Target sequence in this assay (P35222 2-781 limits assumed): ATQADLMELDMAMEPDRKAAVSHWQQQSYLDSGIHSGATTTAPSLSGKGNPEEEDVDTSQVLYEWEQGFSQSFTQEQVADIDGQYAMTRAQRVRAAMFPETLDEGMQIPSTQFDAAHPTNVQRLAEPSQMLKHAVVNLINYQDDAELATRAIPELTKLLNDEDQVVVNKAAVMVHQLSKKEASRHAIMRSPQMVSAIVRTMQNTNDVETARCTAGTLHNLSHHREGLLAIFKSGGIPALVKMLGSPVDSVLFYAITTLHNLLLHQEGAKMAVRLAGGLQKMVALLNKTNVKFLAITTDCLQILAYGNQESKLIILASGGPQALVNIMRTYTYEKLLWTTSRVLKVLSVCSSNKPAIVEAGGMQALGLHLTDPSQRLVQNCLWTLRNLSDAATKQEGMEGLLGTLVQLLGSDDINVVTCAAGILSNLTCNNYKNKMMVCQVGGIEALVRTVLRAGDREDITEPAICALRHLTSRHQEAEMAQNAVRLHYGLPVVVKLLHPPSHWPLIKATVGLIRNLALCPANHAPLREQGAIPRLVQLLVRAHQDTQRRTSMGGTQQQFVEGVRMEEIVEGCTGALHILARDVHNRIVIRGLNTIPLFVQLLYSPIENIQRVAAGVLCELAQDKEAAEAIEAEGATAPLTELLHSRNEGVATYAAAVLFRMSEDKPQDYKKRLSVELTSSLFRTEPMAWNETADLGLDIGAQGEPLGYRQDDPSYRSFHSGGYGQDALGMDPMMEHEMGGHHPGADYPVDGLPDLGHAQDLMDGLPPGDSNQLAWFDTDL

[3] = molecular target: full-length beta-Catenin (Uniprot ID P35222) (Homo sapiens (Human)) (UniProt P35222); experiment: fluorescence polarization competition: peptide titrated against 10 nM full-length beta-catenin + 10 nM 5FAM-TCF4(10-53) probe
Target sequence in this assay (P35222 2-781 limits assumed): as above

[4] = molecular target: B-cat-Halo (beta-catenin HaloTag NanoBRET construct expressed in HEK293 cells) (UniProt P35222); experiment: NanoBRET in HEK293 cells, Bcat-Halo + TCF4-Luc (competitor partner TCF4)
Bcat-Halo [5] = molecular target: Bcat-Halo (UniProt P35222); experiment: NanoBRET Abs IC50, HEK293 cells, B-cat-Halo / TCF4-Luc engagement
[6] = molecular target: full-length beta-Catenin (Uniprot ID P35222) (Homo sapiens (Human)) (UniProt P35222); experiment: fluorescence polarization competition against 5FAM-TCF4 10-53 on full-length beta-catenin
Target sequence in this assay (P35222 whole entry, the tested form may be a part, one chain of several): as the sequence (P35222 whole entry, the tested form may be a part, one chain of several) above

[7] = molecular target: full-length beta-Catenin (Uniprot ID P35222) (Homo sapiens (Human)) (UniProt P35222); experiment: fluorescence polarization competition; 10 nM full-length beta-catenin, 10 nM 5FAM-TCF4(10-53) probe
Target sequence in this assay (P35222 2-781 limits assumed): as the sequence (P35222 2-781 limits assumed) above

Bcat-Halo [8] = molecular target: Bcat-Halo (UniProt P35222); experiment: NanoBRET in HEK293 cells, Bcat-Halo / TCF4-Luc; absolute IC50
[9] = molecular target: full-length beta-Catenin (Uniprot ID P35222) (Homo sapiens (Human)) (UniProt P35222); experiment: fluorescence polarization competition; 10 nM full-length beta-catenin with 10 nM 5FAM-TCF4 (residues 10-53) probe as competitor
Target sequence in this assay (P35222 2-781 limits assumed): as above

Bcat-Halo [10] = molecular target: Bcat-Halo (UniProt P35222); experiment: NanoBRET Abs IC50, HEK293 cells, B-cat-Halo/TCF4-Luc; competitor TCF4-Luc
[11] = molecular target: full-length beta-Catenin (Uniprot ID P35222) (Homo sapiens (Human)) (UniProt P35222); experiment: FP competition vs 5FAM-TCF4(10-53), full-length beta-catenin
Target sequence in this assay (P35222 2-781 limits assumed): as above

[12] = molecular target: full-length beta-Catenin (Uniprot ID P35222) (Homo sapiens (Human)) (UniProt P35222); experiment: fluorescence polarization competition; full-length beta-catenin, 5FAM-TCF4(10-53) probe
Target sequence in this assay (P35222 whole entry, the tested form may be a part, one chain of several): as the sequence (P35222 whole entry, the tested form may be a part, one chain of several) above

[13] = molecular target: B-cat-Halo (NanoBRET construct) (UniProt P35222); experiment: NanoBRET Abs IC50; Bcat-Halo/TCF4-Luc in HEK293 cells, competitor TCF4-Luc
[14] = molecular target: Bcat-Halo (beta-catenin HaloTag construct expressed in HEK293 cells) (UniProt P35222); experiment: NanoBRET Abs IC50 in HEK293 cells; Bcat-Halo with TCF4-Luc as competitor
[15] = molecular target: full-length beta-Catenin (Uniprot ID P35222) (Homo sapiens (Human)) (UniProt P35222); experiment: fluorescence polarization competition; displacement of 5FAM-TCF4(10-53) from full-length beta-catenin
Target sequence in this assay (P35222 whole entry, the tested form may be a part, one chain of several): as above

Chain of Bcat-Halo (beta-catenin HaloTag construct expressed in HEK293 cells) (P35222 whole entry): as the sequence (P35222 whole entry, the tested form may be a part, one chain of several) above
Chain of Bcat-Halo (P35222 whole entry, the tested form may be a part): as the sequence (P35222 whole entry, the tested form may be a part, one chain of several) above
Chain of B-cat-Halo (NanoBRET construct) (P35222 whole entry): as the sequence (P35222 whole entry, the tested form may be a part, one chain of several) above
Chain of B-cat-Halo (beta-catenin HaloTag NanoBRET construct expressed in HEK293 cells) (P35222 whole entry): as the sequence (P35222 whole entry, the tested form may be a part, one chain of several) above

B1: I-296 (peptide)
peptide: Ac-[αAllylPro]DA[B5(4)]D[2Nal]AAFQ[S8]F[Bta]A-NH2
modifications: staple 1-4, 4-11
- EC50 [1]: 1.91 µM

B2: I-807 (peptide)
peptide: Ac-[αAllylPro]D[tBuAla][B5(3)]DDAAFF[PyrS2″][3Thi][Bta]Q-NH2
modifications: staple 1-4, 4-11
- IC50 [2]: 5 nM
- EC50 [3]: 5 nM
- IC50 [4]: 5.3 µM

B3: I-2379 (peptide)
peptide: Ac-[αAllylPro]D[tBuAla][B5(5)]D[Phe(3-COOH)]AAFL[PyrS2″][Phe(2-CF3)][Bta]QLV-NH2
modifications: staple 1-4, 4-11
- IC50 (Bcat-Halo [5]): 5 µM
- IC50 [6]: 246 nM

B4: I-1659 (peptide)
peptide: Ac-[αAllylPro]D[tBuAla][B5(5)]D[2COOHF]AAFF[PyrS2″][2F3MeF][Bta]S-NH2
modifications: staple 1-4, 4-11
- IC50 [7]: 108 nM
- IC50 (Bcat-Halo [8]): 11.4 µM

B5: I-298 (peptide)
peptide: Ac-[αAllylPro]DA[B5(4)]D[2Nal]AAFS[S8]F[Bta]Q-NH2
modifications: staple 1-4, 4-11
- EC50 [1]: 3.86 µM

B6: I-858 (peptide)
peptide: Ac-[αAllylPro]D[tBuAla][B5(12)]DQAAFN[PyrS2][3Thi][Bta]-NH2
modifications: staple 1-4, 4-11
- EC50 [9]: 34 nM
- IC50 (Bcat-Halo [10]): > 20 µM
- IC50 [11]: 34 nM

B7: I-1669 (peptide)
peptide: Ac-[αAllylPro]D[tBuAla][B5(5)]D[2COOHF]AAFF[PyrS2(5)][3Thi][Bta][Thr(ol)]
modifications: staple 1-4, 4-11; also: staple isomer, later-eluting HPLC peak
- IC50 [12]: 30 nM
- IC50 [13]: 11.8 µM

B8: I-839 (peptide)
peptide: Ac-[αAllylPro]D[tBuAla][B5(4)]DQAAFN[PyrS2″][3Thi][Bta]H-NH2
modifications: staple 1-4, 4-11
- EC50 [9]: 7 nM
- IC50 [14]: 41.9 µM
- IC50 [15]: 7 nM

B9: I-1648 (peptide)
peptide: Ac-[αAllylPro]N[Cha][B5(4)]DQ[Lys(iPr)]AFL[PyrS2]F[Bta]Q-NH2
modifications: staple 1-4, 4-11
- IC50 [7]: 191 nM
- IC50 (Bcat-Halo [8]): > 20 µM

B10: I-837 (peptide)
peptide: Ac-[αAllylPro]D[tBuAla][B5(4)]DNAAFN[PyrS2″][3Thi][Bta]H-NH2
modifications: staple 1-4, 4-11
- EC50 [9]: 5 nM
- IC50 [14]: 23.8 µM
- IC50 [15]: 5 nM

B11: I-863 (peptide)
peptide: Ac-[αAllylPro]D[tBuAla][B5(12)]DHAAFN[PyrS2][3Thi][Bta]-NH2
modifications: staple 1-4, 4-11
- EC50 [9]: 22 nM
- IC50 (Bcat-Halo [10]): > 20 µM
- IC50 [11]: 22 nM

B12: I-842 (peptide)
peptide: Ac-[αAllylPro]D[tBuAla][B5(4)]DYAAFN[PyrS2″][3Thi][Bta]Q-NH2
modifications: staple 1-4, 4-11
- EC50 [9]: 34 nM
- IC50 [14]: 47.9 µM
- IC50 [15]: 34 nM

B13: I-2375 (peptide)
peptide: Ac-[αAllylPro]D[tBuAla][B5(4)]DDAAFL[PyrS2″][3Thi][Bta][(3C)TriAzLys]-NH2
modifications: staple 1-4, 4-11
- IC50 (Bcat-Halo [5]): 13.5 µM
- IC50 [6]: 5 nM

B14: I-2367 (peptide)
peptide: Ac-[αAllylPro]D[tBuAla][B5(4)]D[(CH2CH2CO2H)TriAzDap]QAFL[PyrS2″][Phe(2-CF3)][Bta]A-NH2
modifications: staple 1-4, 4-11
- IC50 (Bcat-Halo [5]): 6.2 µM
- IC50 [6]: 7 nM

B15: I-838 (peptide)
peptide: Ac-[αAllylPro]D[tBuAla][B5(4)]DQAAFN[PyrS2″][3Thi][Bta]Q-NH2
modifications: staple 1-4, 4-11
- EC50 [9]: 12 nM
- IC50 [14]: 17.4 µM
- IC50 [15]: 12 nM

B16: I-297 (peptide)
peptide: Ac-[αAllylPro]DA[B5(4)]D[2Nal]AAFV[S8]F[Bta]Q-NH2
modifications: staple 1-4, 4-11
- EC50 [1]: 5.81 µM

B17: I-1668 (peptide)
peptide: Ac-[αAllylPro]D[tBuAla][B5(5)]D[2COOHF]AAFF[PyrS2″][3Thi][Bta][Thr(ol)]
modifications: staple 1-4, 4-11; also: staple isomer, earlier-eluting HPLC peak
- IC50 [12]: 29 nM
- IC50 [13]: 16.4 µM

B18: I-1662 (peptide)
peptide: Ac-[αAllylPro]D[tBuAla][B5(5)]D[2COOHF]AAFF[PyrS2″][Phe(2-Cl)][Bta]S-NH2
modifications: staple 1-4, 4-11
- IC50 [12]: 69 nM
- IC50 [13]: 12 µM

B19: I-841 (peptide)
peptide: Ac-[αAllylPro]D[tBuAla][B5(4)]D[Cit]AAFN[PyrS2″][3Thi][Bta]H-NH2
modifications: staple 1-4, 4-11
- EC50 [9]: 12 nM
- IC50 [14]: 34.4 µM
- IC50 [15]: 12 nM

B20: I-2368 (peptide)
peptide: Ac-[αAllylPro]D[tBuAla][B5(4)]D[(CH2CMe2CO2H)TriAzDap]QAFL[PyrS2″][Phe(2-CF3)][Bta]A-NH2
modifications: staple 1-4, 4-11
- IC50 (Bcat-Halo [5]): 5 µM
- IC50 [6]: 5 nM

B21: I-1665 (peptide)
peptide: Ac-[αAllylPro]D[tBuAla][B5(5)]D[2COOHF]AAFF[PyrS2″][3Thi][Bta]S-NH2
modifications: staple 1-4, 4-11
- IC50 [12]: 17 nM
- IC50 [13]: 9.7 µM

B22: I-1657 (peptide)
peptide: Ac-[αAllylPro]D[tBuAla][B5(5)]D[2COOHF]AAFF[PyrS2″][Phe(2-Cl)][Bta]Q-NH2
modifications: staple 1-4, 4-11
- IC50 [7]: 36 nM
- IC50 (Bcat-Halo [8]): 11 µM

B23: I-1664 (peptide)
peptide: Ac-[αAllylPro]D[tBuAla][B5(5)]D[2COOHF]AAFF[PyrS2″][3Thi][Bta]S-NH2
modifications: staple 1-4, 4-11
- IC50 [12]: 22 nM
- IC50 [13]: 8 µM

B24: I-1655 (peptide)
peptide: Ac-[αAllylPro]D[tBuAla][B5(5)]D[2COOHF]AAFF[PyrS2″][2F3MeF][Bta]Q-NH2
modifications: staple 1-4, 4-11
- IC50 [7]: 48 nM
- IC50 (Bcat-Halo [8]): 12.7 µM

B25: I-2369 (peptide)
peptide: Ac-[αAllylPro]D[tBuAla][B5(4)]D[(CMe2CO2H)TriAzDap]QAFL[PyrS2″][Phe(2-CF3)][Bta]A-NH2
modifications: staple 1-4, 4-11
- IC50 (Bcat-Halo [5]): 9.5 µM
- IC50 [6]: 14 nM

B26: I-859 (peptide)
peptide: Ac-[αAllylPro]D[tBuAla][B5(12)]DTAAFN[PyrS2][3Thi][Bta]-NH2
modifications: staple 1-4, 4-11; also: earlier eluting staple isomer
- EC50 [9]: 36 nM
- IC50 (Bcat-Halo [10]): > 20 µM
- IC50 [11]: 36 nM
